# According to IntAct's records for PubMed 12732628:
# B1: Molybdopterin synthase sulfur carrier subunit (Homo sapiens), O96033 (parent)
# chain: MVPLCQVEVLYFAKSAEITGVRSETISVPQEIKALQLWKEIETRHPGLADVRNQIIFAVRQEYVELGDQLLVLQPGDEIAVIPPISGG
# partner: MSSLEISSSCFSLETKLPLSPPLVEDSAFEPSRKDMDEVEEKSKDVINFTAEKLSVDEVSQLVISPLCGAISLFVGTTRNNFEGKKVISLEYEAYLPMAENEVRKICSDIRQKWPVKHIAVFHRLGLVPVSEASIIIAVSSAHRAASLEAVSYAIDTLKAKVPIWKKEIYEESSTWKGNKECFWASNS
# Variants of: B1
# Conditions: with moc2b_human MOCS2, O96007
row,Variant,effect of a mutation on the interaction
1,V7F,disrupting interaction
